From patent US20210087288A1 come the findings set out here.

Assay [1] has as its target Cynomolgus monkey FcRn (cynomolgus monkey) (UniProt Q8SPV9). The experiment in a line: SPR (BIAcore T200), antibody captured via anti-Fab, FcRn injected, pH 6, steady state. (SPR reads the build-up and loss of mass on a sensor chip optically.)
Another assay deals with Human FcRn (human) (UniProt P55899). The assay is described as above.
Human FcRn (human), sequence (P55899 24-297 limits assumed): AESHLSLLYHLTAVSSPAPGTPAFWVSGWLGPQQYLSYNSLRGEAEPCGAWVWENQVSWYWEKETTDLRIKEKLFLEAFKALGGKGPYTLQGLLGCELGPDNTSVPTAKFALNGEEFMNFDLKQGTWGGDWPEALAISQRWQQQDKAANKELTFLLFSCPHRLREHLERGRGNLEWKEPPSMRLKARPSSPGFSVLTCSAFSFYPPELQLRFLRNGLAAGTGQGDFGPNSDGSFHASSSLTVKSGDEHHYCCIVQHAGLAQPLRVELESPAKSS

Cynomolgus monkey FcRn (cynomolgus monkey), sequence (Q8SPV9 24-297 limits assumed): as the sequence (P55899 24-297 limits assumed) above, with N39D, E44Q, G99S, S189G, S190N, L217M, S269T counted along it

In the case of Anti-gD.hIgG1 (antibody), the results for the dissociation constant Kd (in assay [1]; in the assay with Human FcRn (human)) were 0.9 µM and 0.7 µM, respectively.
